Data on 4 molecules can be found in US20200024330A1.

Assay [1] deals with HIV-1 92TH021 Env (on pseudovirus) (HIV-1). As to the kind of experiment: cell-based or functional assay.
The target of assay [2] is HIV-1 92UG005 Env (on pseudovirus) (HIV-1). As to the kind of experiment: cell-based or functional assay.
Assay [3] concerns the target HIV-1 92UG024 Env (on pseudovirus) (HIV-1). As to the kind of experiment: cell-based or functional assay.
The target in assay [4] is HIV-1 93IN905 Env (on pseudovirus) (HIV-1). As to the kind of experiment: cell-based or functional assay.
Assay [5] has as its target HIV-1 93UG077 Env (on pseudovirus) (HIV-1). In words: cell-based or functional assay.
In assay [6] the target is HIV-1 94UG103 Env (on pseudovirus) (HIV-1). In words: cell-based or functional assay.
The target of assay [7] is HIV-1 APV13 Env (on pseudovirus) (HIV-1). As to the kind of experiment: cell-based or functional assay.
Assay [8] concerns the target HIV-1 APV17 Env (on pseudovirus) (HIV-1). In words: cell-based or functional assay.
Assay [9] addresses HIV-1 APV6 Env (on pseudovirus) (HIV-1). As to the kind of experiment: cell-based or functional assay.
Assay [10] has as its target HIV-1 CMU02 Env (on pseudovirus) (HIV-1). As to the kind of experiment: cell-based or functional assay.
In assay [11] the target is HIV-1 JRCSF Env (on pseudovirus) (HIV-1) (UniProt P20871). As to the kind of experiment: cell-based or functional assay.
In assay [12] the target is HIV-1 JRFL Env (on pseudovirus) (HIV-1). In words: cell-based or functional assay.
In assay [13] the target is HIV-1 MGRM-A-010 Env (on pseudovirus) (HIV-1). In words: cell-based or functional assay.
Assay [14] concerns the target HIV-1 MGRM-AG-005 Env (on pseudovirus) (HIV-1). As to the kind of experiment: cell-based or functional assay.
Assay [15] concerns the target HIV-1 MGRM-C-026 Env (on pseudovirus) (HIV-1). As to the kind of experiment: cell-based or functional assay.
In assay [16] the target is HIV-1 MGRM-C-027 Env (on pseudovirus) (HIV-1). In words: cell-based or functional assay.
Assay [17] concerns the target HIV-1 MGRM-C-028 Env (on pseudovirus) (HIV-1). In words: cell-based or functional assay.
The target of assay [18] is HIV-1 MGRM-D-001 Env (on pseudovirus) (HIV-1). In words: cell-based or functional assay.
Assay [19] addresses HIV-1 MGRM-D-018 Env (on pseudovirus) (HIV-1). In words: cell-based or functional assay.
Assay [20] has as its target HIV-1 NL43 Env (on pseudovirus) (HIV-1). As to the kind of experiment: cell-based or functional assay.
The target of assay [21] is aMLV envelope protein (on pseudovirus, negative control) (aMLV). In words: cell-based or functional assay.
The target of assay [22] is panel of HIV-1 pseudoviruses of Table 52. In words: cell-based or functional assay.
For assay [23], the target named is Env of all HIV-1 pseudoviruses of the cross-clade 162-pseudovirus panel (n = 162). As to the kind of experiment: cell-based or functional assay.
Assay [24] concerns the target Env of the clade A HIV-1 pseudoviruses of the cross-clade 162-pseudovirus panel (n = 26). In words: cell-based or functional assay.
Assay [25] deals with Env of the clade AG HIV-1 pseudoviruses of the cross-clade 162-pseudovirus panel (n = 10). In words: cell-based or functional assay.
In assay [26] the target is Env of the clade B HIV-1 pseudoviruses of the cross-clade 162-pseudovirus panel (n = 31). As to the kind of experiment: cell-based or functional assay.
Assay [27] deals with Env of the clade C HIV-1 pseudoviruses of the cross-clade 162-pseudovirus panel (n = 27). As to the kind of experiment: cell-based or functional assay.
In assay [28] the target is Env of the clade D HIV-1 pseudoviruses of the cross-clade 162-pseudovirus panel (n = 25). In words: cell-based or functional assay.
Assay [29] deals with Env of the clade F HIV-1 pseudoviruses of the cross-clade 162-pseudovirus panel (n = 15). In words: cell-based or functional assay.
Assay [30] concerns the target Env of the clade G HIV-1 pseudoviruses of the cross-clade 162-pseudovirus panel (n = 15). In words: cell-based or functional assay.
Assay [31] deals with HIV-1 92BR020 envelope glycoprotein (Env) (HIV-1). As to the kind of experiment: cell-based or functional assay.
The target of assay [32] is HIV-1 92RW020 envelope glycoprotein (Env) (HIV-1). In words: cell-based or functional assay.
For assay [33], the target named is HIV-1 93IN905 envelope glycoprotein (Env) (HIV-1). As to the kind of experiment: cell-based or functional assay.
The target of assay [34] is HIV-1 93UG077 envelope glycoprotein (Env) (HIV-1). As to the kind of experiment: cell-based or functional assay.
In assay [35] the target is HIV-1 94UG103 envelope glycoprotein (Env) (HIV-1). In words: cell-based or functional assay.
Assay [36] addresses HIV-1 APV13 envelope glycoprotein (Env) (HIV-1). In words: cell-based or functional assay.
Assay [37] concerns the target HIV-1 APV17 envelope glycoprotein (Env) (HIV-1). In words: cell-based or functional assay.
Assay [38] addresses HIV-1 APV6 envelope glycoprotein (Env) (HIV-1). In words: cell-based or functional assay.
In assay [39] the target is HIV-1 Env of isolate 93IN905 (HIV-1). In words: cell-based or functional assay.
Assay [40] addresses HIV-1 Env of isolate JR-CSF (HIV-1) (UniProt P20871). In words: cell-based or functional assay.
Assay [41] deals with HIV-1 Env of isolate MGRM-C-026 (HIV-1). As to the kind of experiment: cell-based or functional assay.
Assay [42] concerns the target HIV-1 JRCSF envelope glycoprotein (Env) (HIV-1) (UniProt P20871). In words: cell-based or functional assay.
Assay [43] concerns the target HIV-1 JRFL envelope glycoprotein (Env) (HIV-1). In words: cell-based or functional assay.
For assay [44], the target named is HIV-1 MGRM-A-010 envelope glycoprotein (Env) (HIV-1). As to the kind of experiment: cell-based or functional assay.
Assay [45] has as its target HIV-1 MGRM-C-026 envelope glycoprotein (Env) (HIV-1). As to the kind of experiment: cell-based or functional assay.
Assay [46] addresses HIV-1 MGRM-C-027 envelope glycoprotein (Env) (HIV-1). As to the kind of experiment: cell-based or functional assay.
The target of assay [47] is HIV-1 MGRM-C-028 envelope glycoprotein (Env) (HIV-1). As to the kind of experiment: cell-based or functional assay.
Assay [48] concerns the target HIV-1 NL43 envelope glycoprotein (Env) (HIV-1). As to the kind of experiment: cell-based or functional assay.
For assay [49], the target named is JR-FL gp120 ΔV1/ΔV2 (HIV-1 (isolate JR-FL)). In words: ELISA on coated gp120; EC50 by nonlinear regression. In general terms: An ELISA detects its analyte on a solid surface through an enzyme-linked reagent.
Assay [50] addresses JR-FL gp120 ΔV3 (HIV-1 (isolate JR-FL)). The description is as above.
In assay [51] the target is WT JR-FL gp120 (HIV-1 (isolate JR-FL)). The description is as above.
Assay [52] addresses HIV-1 Env of isolate 92BR020 (HIV-1). In words: cell-based or functional assay.
Assay [53] deals with HIV-1 Env of isolate 94UG103 (HIV-1). As to the kind of experiment: cell-based or functional assay.

B1: PGT-135 (5343_B08; 5344_E16) (antibody, V domains shown)
VH: QLQMQESGPGLVKPSETLSLSCTVSGDSIRGGEWGDKDYHWGWVRHSAGKGLEWIGSIHWRGTTHYKESLRRRVSMSIDTSRNWFSLRLASVTAADTAVYFCARHRHHDVFMLVPIAGWFDVWGPGVQVTVSS
VL: EIVMTQSPDTLSVSPGETVTLSCRASQNINKNLAWYQYKPGQSPRLVIFETYSKIAAFPARFVASGSGTEFTLTINNMQSEDVAVYYCQQYEEWPRTFGQGTKVDIK
For B1, the IC50 (ug/ml), pseudovirus neutralization is over 10 µg/mL in assay [1]; over 10 µg/mL in assay [2]; 0.0139 µg/mL in assay [3]; 0.0183 µg/mL in assay [4]; over 10 µg/mL in assay [5]; over 10 µg/mL in assay [6]. Further, the IC50 (ug/ml), pseudovirus neutralization is 0.545 µg/mL in assay [7]; over 10 µg/mL in [8]; over 10 µg/mL in [9]; over 10 µg/mL in assay [10]; 0.113 µg/mL in assay [11]; over 10 µg/mL in [12]. Besides, the IC50 (ug/ml), pseudovirus neutralization in assay [13] was over 10 µg/mL; in assay [14], over 10 µg/mL; in [15], 0.0123 µg/mL; in assay [16], over 10 µg/mL; in [17], 2.16 µg/mL; in assay [18], over 10 µg/mL. Besides, the IC50 (ug/ml), pseudovirus neutralization was 0.0433 µg/mL in assay [19], 6.79 µg/mL in assay [20] and over 10 µg/mL in assay [21]. In [22], this molecule displayed a % neutralized (viruses of the panel) of 54%. In addition, the median IC50 (ug/ml), pseudovirus neutralization in [22] amounted to 0.11 µg/mL.

B2: PGT-136 (antibody, V domains shown)
VH: QLQLQESGPGLVKPSETLSLTCTVSGGSMRGTDWGENDFHYGWIRQSSAKGLEWIGSIHWRGRTTHYKTSFRSRATLSIDTSNNRFSLTFSFVTAADTAVYYCARHKYHDIFRVVPVAGWFDPWGQGLLVTVSS
VL: EIVMTQSPPTLSVSPGETATLSCRASQNVKNNLAWYQLKPGQAPRLLIFDASSRAGGIPDRFSGSGYGTDFTLTVNSVQSEDFGDYFCQQYEEWPRTFGQGTKVDIK
For the molecule B2, the Median IC50 against viruses neutralized with an IC50 <50 µg/ml in assay [23] amounted to 7.81 µg/mL; in assay [24], 2.34 µg/mL; in assay [25], 29.1 µg/mL; in assay [26], 13.2 µg/mL; in assay [27], 7.52 µg/mL; in [28], 0.05 µg/mL. For the same molecule, the Median IC50 against viruses neutralized with an IC50 <50 µg/ml was determined as 4.75 µg/mL in assay [29] and 18.9 µg/mL in assay [30]. The IC50 neutralization in [31] was over 10 µg/mL; in assay [32] it was 0.738 µg/mL; in assay [33], 0.0135 µg/mL; in assay [34], over 10 µg/mL; in [35], over 10 µg/mL; in [36] it was over 10 µg/mL. The IC50 neutralization was over 10 µg/mL in [37]; over 10 µg/mL in [38]; over 10 µg/mL in assay [42]; over 10 µg/mL in assay [43]; over 10 µg/mL in [44]; 0.0065 µg/mL in [45]. The IC50 neutralization in assay [46], in [47] and in assay [48] was over 10 µg/mL each time. The Primary Neutralization Index (B cell culture well 5329 C19) was found to be 5.6 in assay [39], 0.9 in assay [40] and 6 in assay [41]. In addition, the Primary Neutralization Index (B cell culture well 5366 P21) in assay [39] turned out to be 5.5; in assay [40] it was 1.1; in assay [41] it was 6.2. Besides, the 50% effective concentration (EC50) (usually the midpoint of the concentration-response curve) in [49] turned out to be 0.3 µg/mL; in [50] it was 0.1 µg/mL; in [51], 0.2 µg/mL.

B3: PGT-136 (5329_C19; 5366_P21) (antibody, V domains shown)
VH: QLQLQESGPGLVKPSETLSLTCTVSGGSMRGTDWGENDFHYGWIRQSSAKGLEWIGSIHWRGRTTHYKTSFRSRATLSIDTSNNRFSLTFSFVTAADTAVYYCARHKYHDIFRVVPVAGWFDPWGQGLLVTVSS
VL: EIVMTQSPPTLSVSPGETATLSCRASQNVKNNLAWYQLKPGQAPRLLIFDASSRAGGIPDRFSGSGYGTDFTLTVNSVQSEDFGDYFCQQYEEWPRTFGQGTKVDIK
In the case of B3, the IC50 (ug/ml), pseudovirus neutralization in assay [1] was over 10 µg/mL; in [2], over 10 µg/mL; in [3], 0.0915 µg/mL; in [4], 0.0135 µg/mL; in assay [5] it was over 10 µg/mL; in assay [6] it was over 10 µg/mL. In addition, the IC50 (ug/ml), pseudovirus neutralization in [7], in assay [8], in [9], in assay [10], in assay [11] and in assay [12] was over 10 µg/mL in each case. Also, the IC50 (ug/ml), pseudovirus neutralization is over 10 µg/mL in [13]; over 10 µg/mL in assay [14]; 0.0065 µg/mL in [15]; over 10 µg/mL in assay [16]; over 10 µg/mL in assay [17]; over 10 µg/mL in assay [18]. Moreover, the IC50 (ug/ml), pseudovirus neutralization in [19], in [20] and in assay [21] was over 10 µg/mL in each case. For the same molecule, the % neutralized (viruses of the panel) in assay [22] worked out at 18%. In assay [22], this molecule yielded a median IC50 (ug/ml), pseudovirus neutralization of 0.05 µg/mL.

B4: 4869_K15 (antibody, V domains shown)
VH: QVHLQESGPGLVTPSETLSLTCTVSNGSVSGRFWSWIRQSPGRGLEWIGYFSDTDRSEYNPSLRSRLTLSVDRSKNQLSLRLKSVTAADSATYYCARAQQGKRIYGIVSFGEFFYYYYMDAWGKGTPVTVSS
VL: SLNPLSLAPGATAKIPCGERSRGSRAVQWYQQKPGQAPTLIIYNNQDRPAGVSERFSGNPDVAIGVTATLTISRVEVGDEADYYCHYWDSRSPISWIFGGGTQLTVL
Consider B4, for which the Primary Neutralization Index (B cell culture well 4869 K15) was determined as 3.9 in assay [52], 1.5 in [53], 2.1 in assay [40] and 104 in assay [41].
